Measured values published in patent US8728470B2, “CAB molecules” (Danisco US Inc., priority 2004, dated 2014).

Test: Immunogenicity after IV or IP administration to normal mice (IgG1 antibodies)
Assay type: in vivo, CB6F1/J mice
Conditions: 20 ug in alum, days 1, 8 and 15, FIG. 20
Method: CAB1.11i and CAB1.2i were diluted in PBS to 200 ug/ml. For the i.p. group (group 5), CAB1.11i was diluted in a 1:1 solution of alum to PBS (resulting concentration=200 ug/ml) and vortexed rapidly for 10 minutes. The mixture was left at 2-8° C. for a minimum of 15 minutes. The mixture was revortexed 1 minute prior to injection into mice. The dosing solution was stored on ice prior to administration.
Wt BLA was diluted in PBS to 400 ug/ml. For the i.p. group, group 4, wt BLA was diluted in a 1:1 solution of alum to a PBS with resulting concentration=200 ug/ml and vortexed rapidly for 10 minutes. The mixture was left at 2-8° C. for a minimum of 15 minutes. The mixture was then revortexed 1 minute prior to injection into mice. The solution was stored on ice prior to administration.
Study design is outlined in Table 7. Female CB6F1/J mice were used for each group. Mice undergoing i.v. injections were placed under a heating lamp for approximately 3 minutes to vasodilate the tail vein, and then placed in a mouse restrainer for the i.v. injection. On days 1, 8 and 15, three mice of each strain each were administered CAB1.2i (20 ug), CAB1.11i (20 ug), or wt BLA (20 ug) intravenously, or wt BLA (20 ug) or CAB1.11i (20 ug) complexed with alum administered by an i.p. injection. Dose concentrations and volumes are outlined in Table 8. Dose concentrations were formulated based on a 100 uL injection/mouse. […]

B1: beta-lactamase: unmodified beta-lactamase protein, SEQ ID NO:11 (protein)
chain: TPVSEKQLAEVVANTITPLMKAQSVPGMAVAVIYQGKPHYYTFGKADIAANKPVTPQTLFELGSISKTFTGVLGGDAIARGEISLDDAVTRYWPQLTGKQWQGIRMLDLATYTAGGLPLQVPDEVTDNASLLRFYQNWQPQWKPGTTRLYANASIGLFGALAVKPSGMPYEQAMTTRVLKPLKLDHTWINVPKAEEAHYAWGYRDGKAVRVSPGMLDAQAYGVKTNVQDMANWVMANMAPENVADASLKQGIALAQSRYWRIGSMYQGLGWEMLNWPVEANTVVETSFGNVALAPLPVAEVNPPAPPVKASWVHKTGSTGGFGSYVAFIPEKQIGIVMLANTSYPNPARVEAAYHILEALQ
modifications: beta-lactamase protein
antibody response (anti-test article IgG1): greatest antibody response
